One block for each substance: values may come before it.
Columns and labels:
Test in all cases: SIMPL ELISA, bait-IN/prey-CIC
[1] = biological target: ARHGAP1 (prey, CIC format) (human) (UniProt Q07960)
[2] = biological target: CCNA1 (prey, CIC format) (human) (UniProt P78396)
[3] = biological target: ZBTB16 (prey, CIC format) (human) (UniProt Q05516)
[4] = biological target: PTPN11 (prey, CIC format) (human) (UniProt Q06124)
[5] = biological target: RAN (prey, CIC format) (human) (UniProt P62826)
[6] = biological target: T1, DCP1A (prey, CIC format) (human) (UniProt Q9NPI6)
T1 sequence (looked up): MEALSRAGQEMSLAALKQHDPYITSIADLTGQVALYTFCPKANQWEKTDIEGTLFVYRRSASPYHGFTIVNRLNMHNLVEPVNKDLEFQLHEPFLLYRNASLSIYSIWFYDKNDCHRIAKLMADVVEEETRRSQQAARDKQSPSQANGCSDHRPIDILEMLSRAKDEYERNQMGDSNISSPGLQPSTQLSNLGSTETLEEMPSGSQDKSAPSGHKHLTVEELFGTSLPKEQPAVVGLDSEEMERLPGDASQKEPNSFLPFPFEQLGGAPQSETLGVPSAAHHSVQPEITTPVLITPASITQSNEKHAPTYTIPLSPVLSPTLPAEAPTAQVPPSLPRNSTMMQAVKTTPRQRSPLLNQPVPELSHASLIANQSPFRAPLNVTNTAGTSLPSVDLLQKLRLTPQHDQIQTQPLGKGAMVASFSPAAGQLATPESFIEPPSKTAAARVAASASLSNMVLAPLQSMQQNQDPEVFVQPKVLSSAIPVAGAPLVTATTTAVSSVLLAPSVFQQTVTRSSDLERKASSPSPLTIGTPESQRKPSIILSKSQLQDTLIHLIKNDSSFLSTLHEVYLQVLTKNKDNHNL

[7] = biological target: T2, LAT (prey, CIC format) (human) (UniProt O43561)
T2 sequence (looked up): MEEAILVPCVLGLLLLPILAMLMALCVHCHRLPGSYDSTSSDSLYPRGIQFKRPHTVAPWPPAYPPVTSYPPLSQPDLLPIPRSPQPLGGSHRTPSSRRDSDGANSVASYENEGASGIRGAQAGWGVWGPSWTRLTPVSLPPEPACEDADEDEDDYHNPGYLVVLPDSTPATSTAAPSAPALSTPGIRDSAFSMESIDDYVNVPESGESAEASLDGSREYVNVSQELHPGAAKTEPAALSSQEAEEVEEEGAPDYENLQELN

[8] = biological target: GRAP2 (prey, CIC format) (human) (UniProt O75791)
[9] = biological target: PCNA (prey, CIC format) (human) (UniProt P12004)
[10] = biological target: DDIT3 (prey, CIC format) (human) (UniProt P35638)
[11] = biological target: T3, NRG1 (prey, CIC format) (human) (UniProt Q02297)
T3 sequence (looked up): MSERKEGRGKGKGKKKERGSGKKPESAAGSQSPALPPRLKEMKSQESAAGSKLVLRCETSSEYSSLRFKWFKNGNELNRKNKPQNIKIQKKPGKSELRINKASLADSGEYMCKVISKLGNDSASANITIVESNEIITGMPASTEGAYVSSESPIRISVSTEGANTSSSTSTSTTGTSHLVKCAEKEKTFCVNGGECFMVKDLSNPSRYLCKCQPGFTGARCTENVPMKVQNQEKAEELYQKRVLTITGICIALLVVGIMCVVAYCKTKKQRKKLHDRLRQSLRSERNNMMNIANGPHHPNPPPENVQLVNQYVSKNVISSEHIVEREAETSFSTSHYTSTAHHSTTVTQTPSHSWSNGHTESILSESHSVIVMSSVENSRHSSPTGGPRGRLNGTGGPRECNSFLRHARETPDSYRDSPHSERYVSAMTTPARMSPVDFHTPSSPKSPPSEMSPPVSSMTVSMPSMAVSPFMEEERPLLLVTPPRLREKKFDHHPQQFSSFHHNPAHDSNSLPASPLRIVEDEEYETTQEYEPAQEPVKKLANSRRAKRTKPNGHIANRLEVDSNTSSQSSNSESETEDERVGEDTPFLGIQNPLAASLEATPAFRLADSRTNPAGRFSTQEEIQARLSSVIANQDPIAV

[12] = biological target: CD58 (prey, CIC format) (human) (UniProt P19256)
[13] = biological target: CGB5 (prey, CIC format) (human) (UniProt P0DN86)
[14] = biological target: MCM3 (prey, CIC format) (human) (UniProt P25205)
[15] = biological target: T4, NCBP2 (prey, CIC format) (human) (UniProt P52298)
T4 sequence (looked up): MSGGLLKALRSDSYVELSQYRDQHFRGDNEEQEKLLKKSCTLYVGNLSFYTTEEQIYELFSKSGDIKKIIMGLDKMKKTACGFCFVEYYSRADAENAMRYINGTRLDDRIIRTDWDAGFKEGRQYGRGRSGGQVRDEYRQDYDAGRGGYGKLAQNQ

[16] = biological target: NFE2L1 (prey, CIC format) (human) (UniProt Q14494)
[17] = biological target: T5, PEX11B (prey, CIC format) (human) (UniProt O96011)
T5 sequence (looked up): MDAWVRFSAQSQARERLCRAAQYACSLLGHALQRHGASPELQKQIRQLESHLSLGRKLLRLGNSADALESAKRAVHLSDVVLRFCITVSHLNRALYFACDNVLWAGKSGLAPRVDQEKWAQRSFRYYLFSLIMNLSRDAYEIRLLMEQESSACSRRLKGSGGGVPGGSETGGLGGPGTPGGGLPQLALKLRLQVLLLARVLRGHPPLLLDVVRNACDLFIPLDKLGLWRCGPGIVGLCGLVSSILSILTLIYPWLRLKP

[18] = biological target: TNFRSF10B (prey, CIC format) (human) (UniProt O14763)
[19] = biological target: T6, PDPK1 (prey, CIC format) (human) (UniProt O15530)
T6 sequence (looked up): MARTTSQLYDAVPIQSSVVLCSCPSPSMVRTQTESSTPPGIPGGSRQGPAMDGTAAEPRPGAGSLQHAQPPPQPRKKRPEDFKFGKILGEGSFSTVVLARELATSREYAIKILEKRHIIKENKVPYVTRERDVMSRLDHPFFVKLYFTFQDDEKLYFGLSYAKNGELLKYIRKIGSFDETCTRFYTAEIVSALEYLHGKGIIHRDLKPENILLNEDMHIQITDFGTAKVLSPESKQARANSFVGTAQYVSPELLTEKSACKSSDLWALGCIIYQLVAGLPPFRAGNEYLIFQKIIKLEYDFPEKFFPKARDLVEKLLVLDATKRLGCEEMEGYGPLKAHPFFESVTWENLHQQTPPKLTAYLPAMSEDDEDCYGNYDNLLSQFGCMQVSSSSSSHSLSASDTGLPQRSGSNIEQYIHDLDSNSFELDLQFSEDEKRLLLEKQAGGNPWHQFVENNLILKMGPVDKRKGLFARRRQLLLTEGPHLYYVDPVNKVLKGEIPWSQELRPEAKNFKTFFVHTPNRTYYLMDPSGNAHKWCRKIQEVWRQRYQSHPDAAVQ

[20] = biological target: T7, PEX19 (prey, CIC format) (human) (UniProt P40855)
T7 sequence (looked up): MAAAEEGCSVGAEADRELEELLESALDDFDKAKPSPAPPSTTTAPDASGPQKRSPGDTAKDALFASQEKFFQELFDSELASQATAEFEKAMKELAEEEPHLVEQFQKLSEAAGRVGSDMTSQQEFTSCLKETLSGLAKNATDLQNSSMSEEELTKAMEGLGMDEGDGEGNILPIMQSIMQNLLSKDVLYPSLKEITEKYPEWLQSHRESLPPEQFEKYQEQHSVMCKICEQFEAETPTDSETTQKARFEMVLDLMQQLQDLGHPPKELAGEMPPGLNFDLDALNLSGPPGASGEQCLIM

[21] = biological target: TCL1A (prey, CIC format) (human) (UniProt P56279)
[22] = biological target: T8, MCM5 (prey, CIC format) (human) (UniProt P33992)
T8 sequence (looked up): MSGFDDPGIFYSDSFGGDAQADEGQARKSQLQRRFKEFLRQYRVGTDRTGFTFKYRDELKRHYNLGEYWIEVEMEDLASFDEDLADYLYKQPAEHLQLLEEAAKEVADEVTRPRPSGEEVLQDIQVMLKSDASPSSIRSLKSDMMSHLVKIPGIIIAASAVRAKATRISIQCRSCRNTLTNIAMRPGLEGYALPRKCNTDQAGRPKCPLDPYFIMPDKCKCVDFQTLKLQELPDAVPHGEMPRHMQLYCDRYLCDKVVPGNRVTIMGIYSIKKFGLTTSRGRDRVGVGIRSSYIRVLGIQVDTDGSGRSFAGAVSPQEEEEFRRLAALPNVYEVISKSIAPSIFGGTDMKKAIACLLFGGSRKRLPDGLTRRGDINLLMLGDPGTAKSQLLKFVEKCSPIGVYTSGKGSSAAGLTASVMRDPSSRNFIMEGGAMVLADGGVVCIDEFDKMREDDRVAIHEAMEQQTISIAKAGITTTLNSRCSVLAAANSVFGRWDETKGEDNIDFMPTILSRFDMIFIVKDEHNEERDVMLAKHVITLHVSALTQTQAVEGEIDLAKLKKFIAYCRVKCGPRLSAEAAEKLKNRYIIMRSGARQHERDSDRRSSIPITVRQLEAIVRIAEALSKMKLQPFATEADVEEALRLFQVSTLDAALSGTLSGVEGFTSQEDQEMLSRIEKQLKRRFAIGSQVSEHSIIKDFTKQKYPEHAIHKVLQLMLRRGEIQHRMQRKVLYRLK

[23] = biological target: T9, S100B (prey, CIC format) (human) (UniProt P04271)
T9 sequence (looked up): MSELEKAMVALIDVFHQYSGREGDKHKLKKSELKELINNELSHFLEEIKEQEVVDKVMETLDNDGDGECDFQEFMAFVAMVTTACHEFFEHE

[24] = biological target: T10, FRS2 (prey, CIC format) (human) (UniProt Q8WU20)
T10 sequence (looked up): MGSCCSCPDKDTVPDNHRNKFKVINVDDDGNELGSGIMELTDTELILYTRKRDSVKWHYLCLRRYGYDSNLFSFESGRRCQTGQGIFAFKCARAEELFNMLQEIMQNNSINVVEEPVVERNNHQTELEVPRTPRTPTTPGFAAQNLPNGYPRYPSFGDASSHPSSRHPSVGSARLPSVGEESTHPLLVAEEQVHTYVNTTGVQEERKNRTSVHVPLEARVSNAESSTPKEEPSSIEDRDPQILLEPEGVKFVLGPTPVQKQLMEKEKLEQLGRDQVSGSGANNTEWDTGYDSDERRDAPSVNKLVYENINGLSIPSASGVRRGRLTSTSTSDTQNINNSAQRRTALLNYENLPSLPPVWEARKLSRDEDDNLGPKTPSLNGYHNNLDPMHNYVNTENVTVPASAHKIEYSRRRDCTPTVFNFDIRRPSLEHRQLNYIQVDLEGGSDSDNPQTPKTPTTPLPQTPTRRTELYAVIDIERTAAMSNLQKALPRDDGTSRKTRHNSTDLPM

PLU mean [1]: 0.486 | PLU mean [2]: 0.36 | PLU mean [3]: 0.691
Substance: RHOA (bait, IN format) (from UniProt P61586 1-193)

PLU mean [4]: 0.539 | PLU mean [5]: 0.143
Substance: PDGFRB (bait, IN format) (from UniProt P09619 33-1106) (receptor)

PLU mean [6]: 0.398 | PLU mean [7]: 0.215
Substance: SMAD4 (bait, IN format) (from UniProt Q13485 1-552)

PLU mean [8]: 0.342 | PLU mean [9]: 0.349
Substance: FEN1 (bait, IN format) (from UniProt P39748 1-380) (enzyme)

PLU mean [10]: 0.28 | PLU mean [11]: 1.22 | PLU mean [9]: 0.0812
Substance: ERBB3 (bait, IN format) (from UniProt P21860 20-1342) (receptor)

PLU mean [12]: 0.131 | PLU mean [13]: 0.435 | PLU mean [14]: 0.0738 | PLU mean [15]: 0.0363
Substance: CGA (bait, IN format) (from UniProt P01215 25-116) (ligand)

PLU mean [16]: 1.72 | PLU mean [17]: 0.341 | PLU mean [18]: 0.459
Substance: MAFG (bait, IN format) (from UniProt O15525 1-162)

PLU mean [19]: 0.486 | PLU mean [20]: 0.218 | PLU mean [21]: 0.111
Substance: AKT1 (bait, IN format) (from UniProt P31749 1-480) (enzyme)

PLU mean [14]: 0.938 | PLU mean [22]: 0.35 | PLU mean [23]: 0.102
Substance: MCM2 (bait, IN format) (from UniProt P49736 1-904)

PLU mean [24]: 0.608 | PLU mean [15]: 1.06
Substance: RET (bait, IN format) (from UniProt P07949 29-1114) (receptor)
